Biological target: the molecule itself
Assay: SEC

B1: mouse WT-APOA5 (mouse apolipoprotein AV with an N-terminal mouse albumin tag) (natural protein, UniProt Q8C7G5 21-368, looked up)
chain: RKSLWDYFSQNSWSKGVMGQPQKLAQENLKGSFEQDLYNMNNYLEKLGPLRGPGKEPPLLAQDPEGIRKQLQQELGEVSSRLEPYMAAKHQQVGWNLEGLRQQLKPYTAELMEQVGLSVQELQEQLRVVGEDTKAQLLGGVDEALNLLQDMQSRVLHHTDRVKELFHPYAERLVTGIGHHVQELHRSVAPHAAASPARLSRCVQTLSHKLTRKAKDLHTSIQRNLDQLRDELSAFIRVSTDGAEDGDSLDPQALSEEVRQRLQAFRHDTYLQIAAFTQAIDQETEEIQHQLAPPPPSHSAFAPELGHSDSNKALSRLQSRLDDLWEDIAYGLQDQGHSHLSDPEGHSG
stoichiometry N: 2

— PMC11046700 (Proceedings of the National Academy of Sciences of the …, 2024)
